Experimental data published in US10941182 (Amgen, dated 2021).
Starred links: 1 amine or outer side, 2 acyl side, 3 side chain; linkers in the order of their positions; H or OH if unused. Non-standard residues stand in square brackets, D forms with d. *: point of attachment. Oic = O=C(O)[C@@H]1C[C@@H]2CCCC[C@@H]2N1; Phe(4-Cl) = N[C@@H](Cc1ccc(Cl)cc1)C(=O)O; γGlu = O=C(O)[C@H](CCC(=O)[*:2])N[*:1]; NMeR = CN[C@@H](CCCNC(=N)N)C(=O)O; Tridecanoyl = CCCCCCCCCCCCC(=O)*; hArg = N=C(N)NCCCC[C@H](N)C(=O)O; Cha = N[C@@H](CC1CCCCC1)C(=O)O; NMeL = CN[C@@H](CC(C)C)C(=O)O; Nle = CCCC[C@H](N)C(=O)O; Orn = NCCC[C@H](N)C(=O)O; AEEA = NCCOCCOCC(=O)O; Aib = CC(C)(N)C(=O)O; Mpa = O=C(O)CCS

Key:
Assay in all cases: cell-based or functional assay
human APJ receptor [1] = molecular target: T1, human APJ receptor (human, UniProt P35414 1-380)
T1 sequence (looked up): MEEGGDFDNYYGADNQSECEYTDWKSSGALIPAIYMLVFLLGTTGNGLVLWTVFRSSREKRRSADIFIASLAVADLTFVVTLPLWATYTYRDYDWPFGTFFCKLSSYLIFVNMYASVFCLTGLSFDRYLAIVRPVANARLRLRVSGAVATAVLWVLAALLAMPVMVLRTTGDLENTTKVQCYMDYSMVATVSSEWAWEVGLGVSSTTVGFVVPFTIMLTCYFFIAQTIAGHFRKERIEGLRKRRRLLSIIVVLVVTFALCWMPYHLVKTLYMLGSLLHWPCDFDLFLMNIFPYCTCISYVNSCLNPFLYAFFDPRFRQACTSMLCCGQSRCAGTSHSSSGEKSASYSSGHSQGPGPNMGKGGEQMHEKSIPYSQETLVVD

rat APJ receptor [2] = molecular target: T2, rat APJ receptor (rat, UniProt Q9JHG3 1-377)
T2 sequence (looked up): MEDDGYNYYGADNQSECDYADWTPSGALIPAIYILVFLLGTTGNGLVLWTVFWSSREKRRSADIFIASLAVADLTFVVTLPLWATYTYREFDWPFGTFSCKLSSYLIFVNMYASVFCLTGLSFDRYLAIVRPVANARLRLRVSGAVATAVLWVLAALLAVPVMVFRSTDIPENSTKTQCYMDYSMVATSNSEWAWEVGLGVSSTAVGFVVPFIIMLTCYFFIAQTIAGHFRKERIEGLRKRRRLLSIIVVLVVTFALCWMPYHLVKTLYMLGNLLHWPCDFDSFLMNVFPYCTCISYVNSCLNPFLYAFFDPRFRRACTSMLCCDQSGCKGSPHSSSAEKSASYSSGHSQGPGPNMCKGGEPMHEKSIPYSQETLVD

human APJ receptor [3] = molecular target: T3, human APJ receptor (human, UniProt P35414 1-380); remark: listed apart in the source
T3 sequence (looked up): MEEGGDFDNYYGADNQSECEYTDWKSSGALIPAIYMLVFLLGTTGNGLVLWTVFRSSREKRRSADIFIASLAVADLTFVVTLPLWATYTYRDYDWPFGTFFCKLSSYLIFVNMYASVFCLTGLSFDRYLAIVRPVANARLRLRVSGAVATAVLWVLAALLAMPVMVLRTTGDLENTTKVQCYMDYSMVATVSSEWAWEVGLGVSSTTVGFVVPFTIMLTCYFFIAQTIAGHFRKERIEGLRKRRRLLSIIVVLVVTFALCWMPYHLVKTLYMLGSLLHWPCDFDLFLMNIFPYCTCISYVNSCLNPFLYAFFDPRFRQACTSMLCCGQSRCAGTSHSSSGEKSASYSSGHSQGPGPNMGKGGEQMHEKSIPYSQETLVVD

rat APJ receptor [4] = molecular target: T4, rat APJ receptor (rat, UniProt Q9JHG3 1-377); remark: listed apart in the source
T4 sequence (looked up): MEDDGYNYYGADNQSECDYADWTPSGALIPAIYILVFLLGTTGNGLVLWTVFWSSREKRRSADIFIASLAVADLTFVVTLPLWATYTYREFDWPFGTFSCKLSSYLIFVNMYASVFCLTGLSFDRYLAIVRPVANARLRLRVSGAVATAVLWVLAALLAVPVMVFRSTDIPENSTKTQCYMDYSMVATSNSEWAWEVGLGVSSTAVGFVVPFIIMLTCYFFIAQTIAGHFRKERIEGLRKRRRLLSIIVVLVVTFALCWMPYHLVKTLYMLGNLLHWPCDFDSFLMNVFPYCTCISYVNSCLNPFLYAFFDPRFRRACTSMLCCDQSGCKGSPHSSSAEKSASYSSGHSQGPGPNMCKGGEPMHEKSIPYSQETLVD

Binder | EC50 Human APJ Receptor (human APJ receptor [1]) [nM] | EC50 Rat APJ Receptor (rat APJ receptor [2]) [nM] | EC50 Human APJ Receptor (µM), GTPγS assay (human APJ receptor [3]) [µM] | EC50 Rat APJ Receptor (µM), GTPγS assay (rat APJ receptor [4]) [µM]
Ac-[Orn]F[hArg][hArg]Q[hArg]P[dR][NMeL]SHKG[Oic][Nle][Phe(4-Cl)]-OH (SMILES CCCC[C@H](NC(=O)[C@@H]1C[C@@H]2CCCC[C@@H]2N1C(=O)CNC(=O)[C@H](CCCCN)NC(=O)[C@H](Cc1c[nH]cn1)NC(=O)[C@H](CO)NC(=O)[C@H](CC(C)C)N(C)C(=O)[C@@H](CCCNC(=N)N)NC(=O)[C@@H]1CCCN1C(=O)[C@H](CCCCNC(=N)N)NC(=O)[C@H](CCC(N)=O)NC(=O)[C@H](CCCCNC(=N)N)NC(=O)[C@H](CCCCNC(=N)N)NC(=O)[C@H](Cc1ccccc1)NC(=O)[C@H](CCCN)NC(C)=O)C(=O)N[C@@H](Cc1ccc(Cl)cc1)C(=O)O) [apelin polypeptide SEQ ID NO: 59] | 2.08 | 4.57 |  | 
{20K mPEGacetamide}-[Mpa]RQRP[hArg][Cha]SHKG[Oic][Nle]P[Phe(4-Cl)]-OH (numbers in words are those of the source; also: 20 kDa PEG conjugate) [apelin polypeptide SEQ ID NO: 100] | 8.06 | 45.4 |  | 
Tridecanoyl-[dD][AEEA][AEEA][dQ]RP[NMeR][Cha]SHKG[Oic][Nle][Aib][Phe(4-Cl)]-OH (SMILES CCCCCCCCCCCCC(=O)N[C@H](CC(=O)O)C(=O)NCCOCCOCC(=O)NCCOCCOCC(=O)N[C@H](CCC(N)=O)C(=O)N[C@@H](CCCNC(=N)N)C(=O)N1CCC[C@H]1C(=O)N(C)[C@@H](CCCNC(=N)N)C(=O)N[C@@H](CC1CCCCC1)C(=O)N[C@@H](CO)C(=O)N[C@@H](Cc1c[nH]cn1)C(=O)N[C@@H](CCCCN)C(=O)NCC(=O)N1[C@H](C(=O)N[C@@H](CCCC)C(=O)NC(C)(C)C(=O)N[C@@H](Cc2ccc(Cl)cc2)C(=O)O)C[C@@H]2CCCC[C@@H]21) [modified apelin polypeptide SEQ ID NO: 538] |  |  | 0.000525 | 0.00189
XXQRPRLSHKGPXPF ({TDA} [Aeea] [Aeea] Q R P [NMeArg] L S H K G P [Nle] P [4-Cl-F] {COOH}: N-terminal tridecanoyl (TDA)-Aeea-Aeea; NMeArg, Nle, 4-Cl-F non-canonical; free C-terminal acid) [modified apelin polypeptide SEQ ID NO: 507] |  |  | 7.95e-05 | 0.000245
Tridecanoyl-[γGlu][dQ]RP[NMeR][Cha]SHKG[Oic][Nle][Aib][Phe(4-Cl)]-OH (SMILES CCCCCCCCCCCCC(=O)N[C@@H](CCC(=O)N[C@H](CCC(N)=O)C(=O)N[C@@H](CCCNC(=N)N)C(=O)N1CCC[C@H]1C(=O)N(C)[C@@H](CCCNC(=N)N)C(=O)N[C@@H](CC1CCCCC1)C(=O)N[C@@H](CO)C(=O)N[C@@H](Cc1c[nH]cn1)C(=O)N[C@@H](CCCCN)C(=O)NCC(=O)N1[C@H](C(=O)N[C@@H](CCCC)C(=O)NC(C)(C)C(=O)N[C@@H](Cc2ccc(Cl)cc2)C(=O)O)C[C@@H]2CCCC[C@@H]21)C(=O)O) [modified apelin polypeptide SEQ ID NO: 532] |  |  |  | 0.00299
Tridecanoyl-[dE][AEEA][AEEA][dQ]RP[NMeR][Cha]SHKG[Oic][Nle][Aib][Phe(4-Cl)]-OH (SMILES CCCCCCCCCCCCC(=O)N[C@H](CCC(=O)O)C(=O)NCCOCCOCC(=O)NCCOCCOCC(=O)N[C@H](CCC(N)=O)C(=O)N[C@@H](CCCNC(=N)N)C(=O)N1CCC[C@H]1C(=O)N(C)[C@@H](CCCNC(=N)N)C(=O)N[C@@H](CC1CCCCC1)C(=O)N[C@@H](CO)C(=O)N[C@@H](Cc1c[nH]cn1)C(=O)N[C@@H](CCCCN)C(=O)NCC(=O)N1[C@H](C(=O)N[C@@H](CCCC)C(=O)NC(C)(C)C(=O)N[C@@H](Cc2ccc(Cl)cc2)C(=O)O)C[C@@H]2CCCC[C@@H]21) [modified apelin polypeptide SEQ ID NO: 547] |  |  | 0.000404 | 0.00133
Tridecanoyl-[γGlu][AEEA][AEEA]RQRPK[Cha]SH[Nle]G[Oic][Nle]P[Phe(4-Cl)]-OH (SMILES CCCCCCCCCCCCC(=O)N[C@@H](CCC(=O)NCCOCCOCC(=O)NCCOCCOCC(=O)N[C@@H](CCCNC(=N)N)C(=O)N[C@@H](CCC(N)=O)C(=O)N[C@@H](CCCNC(=N)N)C(=O)N1CCC[C@H]1C(=O)N[C@@H](CCCCN)C(=O)N[C@@H](CC1CCCCC1)C(=O)N[C@@H](CO)C(=O)N[C@@H](Cc1c[nH]cn1)C(=O)N[C@@H](CCCC)C(=O)NCC(=O)N1[C@H](C(=O)N[C@@H](CCCC)C(=O)N2CCC[C@H]2C(=O)N[C@@H](Cc2ccc(Cl)cc2)C(=O)O)C[C@@H]2CCCC[C@@H]21)C(=O)O) [modified apelin polypeptide SEQ ID NO: 337] |  |  | 0.00208 | 0.00212
